B1: ZNF449 (parent)
chain: YRHQRLHTGERPYECTVCKKRFTR
B2: WDFY2 (parent)
chain: FWNFKQMWDSKKIGLRQHHCRKCG

Variants of: B1
Experiment: protein stability index of a GFP-peptide fusion (GPS, HEK-293T) (PSI 1-6); higher = more stable
Conditions: c terminus: a fixed tail appended
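Also: lentivirally expressed fusions sorted by FACS into six bins by GFP to DsRed ratio, PSI derived from sequencing read proportions per bin multiplied by bin number.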

Variant | protein stability index
H3C | 2.4
H3A | 1.89
H3E | 1.83
H3F | 1.66
H3L | 1.52
H3G | 2.28
H3I | 2.12
H3D | 2.15
H3K | 2.05
Y1A | 3.22
Y1F | 1.65
Y1Q | 2.88
Y1D | 2.58
Y1H | 2.98
Y1W | 1.97
Y1K | 2.77
Y1G | 2.21
Y1L | 2.83
Y1T | 2.65
Y1C | 3.93
Y1S | 3.05
Y1R | 3.05
Y1P | 2.7

Variant | protein stability index
Y1V | 2.45
Y1M | 2.92
Y1N | 2.35
Y1I | 2.55
Y1E | 3.16
R2Q | 2.12
R2E | 2.65
R2G | 2.92
R2C | 2.66
R2S | 2.76
R2D | 2.48
R2W | 1.57
R2K | 2.32
R2N | 1.56
R2P | 1.63
R2Y | 2.38
R2V | 3.09
R2I | 2.65
R2A | 1.81
R2F | 1.88
R2L | 2.16
R2M | 2.33
R2T | 1.8

Variants of: B2
Experiment: as above
Conditions: c terminus: a fixed tail appended

Variant | protein stability index
I13N | 2.42
I13Y | 2.25
I13G | 1.99
I13K | 1.99
I13C | 2.72
I13W | 1.67
I13M | 2.29
I13Q | 1.73
I13R | 2.01
I13P | 1.86
I13V | 2.02
I13S | 2.54
I13A | 2.52
I13D | 2.55
I13E | 2.28
I13H | 1.81
I13F | 2.15
I13T | 1.66
S10I | 2.94
S10M | 1.76
S10V | 1.78
S10F | 1.72
S10E | 1.72
S10A | 1.32

Variant | protein stability index
S10Y | 1.72
S10P | 2.17
S10Q | 2.65
S10H | 2.55
S10K | 2.04
S10R | 1.53
S10T | 1.73
S10L | 1.67
S10D | 1.75
S10C | 1.94
G24D | 2.09
G24C | 2.4
G24E | 2.13
G24H | 1.71
G24M | 2.38
G24N | 1.67
G24S | 2.39
G24A | 1.58
G24Q | 1.95
G24P | 2.03
G24R | 2.3
G24L | 1.43
G24I | 1.51
G24Y | 2.73

Variant | protein stability index
G24W | 1.68
G24K | 1.98
G24F | 1.23
G24T | 2.7
G24V | 3.27
C23G | 2.14
C23S | 1.78
C23I | 2.48
C23D | 1.89
C23L | 2.01
C23K | 2.38
C23Y | 1.92
C23V | 1.79
C23H | 2.24
C23F | 2.17
C23N | 2.21
C23R | 1.79
C23P | 2.16
C23M | 1.94
C23W | 2.45
C23A | 1.78
C23T | 2.44
C20E | 2.47
C20S | 2.49

Variant | protein stability index
C20H | 3.07
C20Y | 1.84
C20Q | 2.15
C20I | 2.01
C20W | 3.08
C20P | 1.94
C20T | 2.28
C20A | 1.82
C20D | 1.89
C20M | 3.04
C20K | 2.15
C20L | 2.09
C20V | 1.73
C20F | 2.54
C20G | 2.91
C20R | 2.37
C20N | 2.31
K11R | 1.74
K11Q | 2.54
K11D | 2.1
K11G | 2.44
K11C | 2.65
K11A | 2.93
K11Y | 2.71

Variant | protein stability index
K11S | 1.25
K11F | 2.48
K11L | 1.73
K11N | 2.7
K11I | 2.5
K11T | 1.76
K11M | 1.83
K11W | 1.51
K11E | 2.61
K11V | 1.99
K11H | 2.12
K11P | 2.19
K12A | 1.68
K12N | 1.85
K12R | 1.71
K12W | 2.3
K12E | 2.05
K12S | 2.62
K12I | 2.06
K12V | 2.42
K12G | 1.58
K12D | 1.88
K12Q | 2.1
K12C | 2.79

Variant | protein stability index
K12F | 1.84
K12H | 2.01
K12T | 2.08
K12L | 1.89
K12M | 1.73
K12P | 2.03
K12Y | 1.53
K22A | 1.09
K22Q | 2.21
K22E | 1.65
K22D | 1.79
K22H | 1.23
K22I | 4.49
K22S | 2.72
K22N | 1.57
K22L | 1.47
K22Y | 1.78
K22M | 1.8
K22T | 2.87
K22G | 1.65
K22V | 1.7
R21T | 1.71
R21Q | 2.11
R21S | 1.72

Variant | protein stability index
R21K | 2.01
R21V | 1.21
R21E | 2.02
R21N | 2.46
R21Y | 1.58
R21A | 2.34
R21I | 1.29
R21D | 2.04
R21F | 1.76
R21M | 2.21
R21P | 1.53
R21G | 1.85
R21H | 2.66
R21L | 1.1
Q17L | 1.99
Q17Y | 2.12
Q17V | 2.13
Q17G | 1.49
Q17M | 1.91
Q17F | 1.35
Q17T | 1.2
Q17P | 2.52
Q17E | 1.53
Q17N | 1.35

Variant | protein stability index
Q17D | 1.9
Q17S | 1.99
Q17A | 2.32
Q17W | 1.82
Q17K | 1.38
Q17I | 2.84
Q17C | 1.61
Q17R | 2
Q17H | 2.18
R16Y | 1.85
R16A | 1.97
R16D | 2.06
R16E | 2.92
R16G | 1.54
R16K | 1.53
R16M | 1.94
R16N | 1.84
R16H | 2.06
R16L | 1.76
R16C | 1.59
R16T | 1.67
R16S | 2.15
R16Q | 2.66
R16V | 2.1

Variant | protein stability index
R16F | 3.39
R16P | 3.42
D9R | 1.73
D9Y | 2.95
D9T | 1
D9S | 1.28
D9F | 1.54
D9V | 3.81
D9P | 2.43
D9K | 2.05
D9Q | 1.84
D9H | 2.63
D9G | 1.77
D9E | 2.3
D9W | 1.81
D9C | 1.2
D9N | 1.81
D9I | 2.56
G14V | 2
G14I | 1.48
G14Y | 2.53
G14P | 1.46
G14Q | 1.32
G14C | 2.45

Variant | protein stability index
G14S | 3.27
G14N | 1.95
G14D | 2.41
G14A | 1.66
G14H | 1.82
G14L | 2
G14W | 1.91
G14M | 1.89
G14T | 2.4
G14F | 1.93
G14R | 1.9
G14K | 2.14
L15G | 2.14
L15Y | 1.93
L15E | 2.48
L15P | 2.68
L15W | 1.42
L15D | 2.17
L15R | 2.61
L15N | 2.11
L15A | 2.01
L15H | 1.71
L15Q | 1.95
L15M | 1.97

Variant | protein stability index
L15K | 2.32
L15V | 2.34
L15S | 2.25
L15I | 1.92
L15T | 2.01
L15F | 1.81
H19N | 2.68
H19I | 2.22
H19A | 1.86
H19W | 1.69
H19V | 1.98
H19R | 2.39
H19Y | 1.76
H19D | 2.11
H19F | 1.79
H19C | 1.73
H19K | 2.39
H19Q | 1.87
H19E | 1.62
H19G | 2.38
H19P | 2.17
H19S | 2.02
H19L | 2.02
H19T | 1.72

Variant | protein stability index
W8Q | 2.39
W8V | 2.22
W8S | 2.14
W8T | 2.07
W8R | 2.58
W8Y | 2.04
H18V | 1.83
H18M | 1.38
H18P | 2.05
H18D | 1.79
H18I | 1.8
H18F | 1.51
H18Y | 2.5
H18R | 2.5
H18K | 2.06
H18E | 2.25
H18Q | 1.44
H18S | 1.84
H18T | 1.56
H18W | 2.18
H18C | 2.94
H18N | 3.5
H18A | 1.73
H18L | 1.76

From the supplement of paper PMC10567573
